The labels stand for the following.
B1: N^ε1-[2-[2-[2-[[(4S)-4-carboxy-4-(19-carboxynonadecanoylamino)butanoyl]amino]ethoxy]ethoxy]acetyl]-[Lys14,Arg17,Pro21,Pro27,Pro31]-h-amylin (peptide)
peptide: K([AEEA-γGlu-C20 diacid])CNTATCATQRLAKFLRHSSPNFGAIPSSTPVGSNTY-NH2
modifications: disulfide 2-7; N-terminus assumed
SMILES: CC[C@H](C)[C@H](NC(=O)[C@H](C)NC(=O)CNC(=O)[C@H](Cc1ccccc1)NC(=O)[C@H](CC(N)=O)NC(=O)[C@@H]1CCCN1C(=O)[C@H](CO)NC(=O)[C@H](CO)NC(=O)[C@H](Cc1c[nH]cn1)NC(=O)[C@H](CCCNC(=N)N)NC(=O)[C@H](CC(C)C)NC(=O)[C@H](Cc1ccccc1)NC(=O)[C@H](CCCCN)NC(=O)[C@H](C)NC(=O)[C@H](CC(C)C)NC(=O)[C@H](CCCNC(=N)N)NC(=O)[C@H](CCC(N)=O)NC(=O)[C@@H](NC(=O)[C@H](C)NC(=O)[C@@H]1CSSC[C@H](NC(=O)[C@@H](N)CCCCNC(=O)COCCOCCNC(=O)CC[C@H](NC(=O)CCCCCCCCCCCCCCCCCCC(=O)O)C(=O)O)C(=O)N[C@@H](CC(N)=O)C(=O)N[C@@H]([C@@H](C)O)C(=O)N[C@@H](C)C(=O)N[C@@H]([C@@H](C)O)C(=O)N1)[C@@H](C)O)C(=O)N1CCC[C@H]1C(=O)N[C@@H](CO)C(=O)N[C@@H](CO)C(=O)N[C@H](C(=O)N1CCC[C@H]1C(=O)N[C@H](C(=O)NCC(=O)N[C@@H](CO)C(=O)N[C@@H](CC(N)=O)C(=O)N[C@H](C(=O)N[C@@H](Cc1ccc(O)cc1)C(N)=O)[C@@H](C)O)C(C)C)[C@@H](C)O
notes: also called 74; compound 74
B2: N^ε1-[2-[2-[2-[[(4S)-4-carboxy-4-(19-carboxynonadecanoylamino)butanoyl]amino]ethoxy]ethoxy]acetyl]-[Ser14,Arg17,Pro21,Pro27,Pro31]-h-amylin (peptide)
peptide: K([AEEA-γGlu-C20 diacid])CNTATCATQRLASFLRHSSPNFGAIPSSTPVGSNTY-NH2
modifications: disulfide 2-7; N-terminus assumed
SMILES: CC[C@H](C)[C@H](NC(=O)[C@H](C)NC(=O)CNC(=O)[C@H](Cc1ccccc1)NC(=O)[C@H](CC(N)=O)NC(=O)[C@@H]1CCCN1C(=O)[C@H](CO)NC(=O)[C@H](CO)NC(=O)[C@H](Cc1c[nH]cn1)NC(=O)[C@H](CCCNC(=N)N)NC(=O)[C@H](CC(C)C)NC(=O)[C@H](Cc1ccccc1)NC(=O)[C@H](CO)NC(=O)[C@H](C)NC(=O)[C@H](CC(C)C)NC(=O)[C@H](CCCNC(=N)N)NC(=O)[C@H](CCC(N)=O)NC(=O)[C@@H](NC(=O)[C@H](C)NC(=O)[C@@H]1CSSC[C@H](NC(=O)[C@@H](N)CCCCNC(=O)COCCOCCNC(=O)CC[C@H](NC(=O)CCCCCCCCCCCCCCCCCCC(=O)O)C(=O)O)C(=O)N[C@@H](CC(N)=O)C(=O)N[C@@H]([C@@H](C)O)C(=O)N[C@@H](C)C(=O)N[C@@H]([C@@H](C)O)C(=O)N1)[C@@H](C)O)C(=O)N1CCC[C@H]1C(=O)N[C@@H](CO)C(=O)N[C@@H](CO)C(=O)N[C@H](C(=O)N1CCC[C@H]1C(=O)N[C@H](C(=O)NCC(=O)N[C@@H](CO)C(=O)N[C@@H](CC(N)=O)C(=O)N[C@H](C(=O)N[C@@H](Cc1ccc(O)cc1)C(N)=O)[C@@H](C)O)C(C)C)[C@@H](C)O
notes: also called 73; compound 73
B3: N^ε1-[2-[2-[2-[[(4S)-4-carboxy-4-(19-carboxynonadecanoylamino)butanoyl]amino]ethoxy]ethoxy]acetyl]-[Thr14,Arg17,Pro21,Pro27,Pro31]-h-amylin (peptide)
peptide: K([AEEA-γGlu-C20 diacid])CNTATCATQRLATFLRHSSPNFGAIPSSTPVGSNTY-NH2
modifications: disulfide 2-7; N-terminus assumed
SMILES: CC[C@H](C)[C@H](NC(=O)[C@H](C)NC(=O)CNC(=O)[C@H](Cc1ccccc1)NC(=O)[C@H](CC(N)=O)NC(=O)[C@@H]1CCCN1C(=O)[C@H](CO)NC(=O)[C@H](CO)NC(=O)[C@H](Cc1c[nH]cn1)NC(=O)[C@H](CCCNC(=N)N)NC(=O)[C@H](CC(C)C)NC(=O)[C@H](Cc1ccccc1)NC(=O)[C@@H](NC(=O)[C@H](C)NC(=O)[C@H](CC(C)C)NC(=O)[C@H](CCCNC(=N)N)NC(=O)[C@H](CCC(N)=O)NC(=O)[C@@H](NC(=O)[C@H](C)NC(=O)[C@@H]1CSSC[C@H](NC(=O)[C@@H](N)CCCCNC(=O)COCCOCCNC(=O)CC[C@H](NC(=O)CCCCCCCCCCCCCCCCCCC(=O)O)C(=O)O)C(=O)N[C@@H](CC(N)=O)C(=O)N[C@@H]([C@@H](C)O)C(=O)N[C@@H](C)C(=O)N[C@@H]([C@@H](C)O)C(=O)N1)[C@@H](C)O)[C@@H](C)O)C(=O)N1CCC[C@H]1C(=O)N[C@@H](CO)C(=O)N[C@@H](CO)C(=O)N[C@H](C(=O)N1CCC[C@H]1C(=O)N[C@H](C(=O)NCC(=O)N[C@@H](CO)C(=O)N[C@@H](CC(N)=O)C(=O)N[C@H](C(=O)N[C@@H](Cc1ccc(O)cc1)C(N)=O)[C@@H](C)O)C(C)C)[C@@H](C)O
notes: also called 75; compound 75
B4: N^ε1-[(4S)-4-carboxy-4-(19-carboxynonadecanoylamino)butanoyl]-[Ala14,Arg17,Pro21,Pro27,His34]-h-amylin (peptide)
peptide: K([γGlu-C20 diacid])CNTATCATQRLAAFLRHSSPNFGAIPSSTNVGHNTY-NH2
modifications: disulfide 2-7; N-terminus assumed
SMILES: CC[C@H](C)[C@H](NC(=O)[C@H](C)NC(=O)CNC(=O)[C@H](Cc1ccccc1)NC(=O)[C@H](CC(N)=O)NC(=O)[C@@H]1CCCN1C(=O)[C@H](CO)NC(=O)[C@H](CO)NC(=O)[C@H](Cc1c[nH]cn1)NC(=O)[C@H](CCCNC(=N)N)NC(=O)[C@H](CC(C)C)NC(=O)[C@H](Cc1ccccc1)NC(=O)[C@H](C)NC(=O)[C@H](C)NC(=O)[C@H](CC(C)C)NC(=O)[C@H](CCCNC(=N)N)NC(=O)[C@H](CCC(N)=O)NC(=O)[C@@H](NC(=O)[C@H](C)NC(=O)[C@@H]1CSSC[C@H](NC(=O)[C@@H](N)CCCCNC(=O)CC[C@H](NC(=O)CCCCCCCCCCCCCCCCCCC(=O)O)C(=O)O)C(=O)N[C@@H](CC(N)=O)C(=O)N[C@@H]([C@@H](C)O)C(=O)N[C@@H](C)C(=O)N[C@@H]([C@@H](C)O)C(=O)N1)[C@@H](C)O)C(=O)N1CCC[C@H]1C(=O)N[C@@H](CO)C(=O)N[C@@H](CO)C(=O)N[C@H](C(=O)N[C@@H](CC(N)=O)C(=O)N[C@H](C(=O)NCC(=O)N[C@@H](Cc1c[nH]cn1)C(=O)N[C@@H](CC(N)=O)C(=O)N[C@H](C(=O)N[C@@H](Cc1ccc(O)cc1)C(N)=O)[C@@H](C)O)C(C)C)[C@@H](C)O
notes: also called 93; compound 93
B5: N^ε1-[(4S)-4-carboxy-4-(19-carboxynonadecanoylamino)butanoyl]-[Ala14,Arg17,Pro21,Pro27,Pro34]-h-amylin (peptide)
peptide: K([γGlu-C20 diacid])CNTATCATQRLAAFLRHSSPNFGAIPSSTNVGPNTY-NH2
modifications: disulfide 2-7; N-terminus assumed
SMILES: CC[C@H](C)[C@H](NC(=O)[C@H](C)NC(=O)CNC(=O)[C@H](Cc1ccccc1)NC(=O)[C@H](CC(N)=O)NC(=O)[C@@H]1CCCN1C(=O)[C@H](CO)NC(=O)[C@H](CO)NC(=O)[C@H](Cc1c[nH]cn1)NC(=O)[C@H](CCCNC(=N)N)NC(=O)[C@H](CC(C)C)NC(=O)[C@H](Cc1ccccc1)NC(=O)[C@H](C)NC(=O)[C@H](C)NC(=O)[C@H](CC(C)C)NC(=O)[C@H](CCCNC(=N)N)NC(=O)[C@H](CCC(N)=O)NC(=O)[C@@H](NC(=O)[C@H](C)NC(=O)[C@@H]1CSSC[C@H](NC(=O)[C@@H](N)CCCCNC(=O)CC[C@H](NC(=O)CCCCCCCCCCCCCCCCCCC(=O)O)C(=O)O)C(=O)N[C@@H](CC(N)=O)C(=O)N[C@@H]([C@@H](C)O)C(=O)N[C@@H](C)C(=O)N[C@@H]([C@@H](C)O)C(=O)N1)[C@@H](C)O)C(=O)N1CCC[C@H]1C(=O)N[C@@H](CO)C(=O)N[C@@H](CO)C(=O)N[C@H](C(=O)N[C@@H](CC(N)=O)C(=O)N[C@H](C(=O)NCC(=O)N1CCC[C@H]1C(=O)N[C@@H](CC(N)=O)C(=O)N[C@H](C(=O)N[C@@H](Cc1ccc(O)cc1)C(N)=O)[C@@H](C)O)C(C)C)[C@@H](C)O
notes: also called 94; compound 94

Numbered stars: 1 amine (or outer) side, 2 acyl side, 3 side chain; on linkers, the order of the positions; unused ones are H or OH. Bridge positions count the residues as written; N and C are the ends. Side chains are listed from the residue outwards. Ends that are not written are not given here. * marks the point of attachment. C20 diacid = O=C(O)CCCCCCCCCCCCCCCCCCC(=O)*; γGlu = O=C(O)[C@H](CCC(=O)[*:2])N[*:1]; AEEA = NCCOCCOCC(=O)O

In the assay the target is T1, human amylin receptor (amylin 3(a) receptor: human calcitonin receptor with RAMP-3) (human, UniProt P30988 25-474; O60896 24-148).
T1 construct: whole, on cells; also called hAmylin-R; hAmylinR
T1 sequence (looked up) 1: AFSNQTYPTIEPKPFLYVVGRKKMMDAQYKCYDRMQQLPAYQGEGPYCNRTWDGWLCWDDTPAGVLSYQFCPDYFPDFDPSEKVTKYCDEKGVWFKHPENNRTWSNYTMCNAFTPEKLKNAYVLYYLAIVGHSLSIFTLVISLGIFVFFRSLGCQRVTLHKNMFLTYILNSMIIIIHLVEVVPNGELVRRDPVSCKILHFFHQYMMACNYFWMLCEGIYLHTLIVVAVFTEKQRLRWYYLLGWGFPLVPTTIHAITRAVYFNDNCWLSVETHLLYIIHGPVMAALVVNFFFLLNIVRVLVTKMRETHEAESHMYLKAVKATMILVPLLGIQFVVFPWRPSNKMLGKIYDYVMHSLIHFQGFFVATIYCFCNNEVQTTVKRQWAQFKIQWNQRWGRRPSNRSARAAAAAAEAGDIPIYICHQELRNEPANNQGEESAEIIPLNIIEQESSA
T1 sequence (looked up) 2: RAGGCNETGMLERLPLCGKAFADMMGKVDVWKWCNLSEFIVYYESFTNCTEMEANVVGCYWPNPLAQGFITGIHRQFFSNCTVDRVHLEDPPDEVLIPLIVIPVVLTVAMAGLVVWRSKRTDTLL
Put plainly: SPA displacement of 125I-rat amylin, hAmylin 3(a) receptor membranes. The procedure, abridged: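 SPA beads with BHK Amylin 3(a)/CRE-luc cell membranes (35 ng/μL final) in 50 mM Hepes pH 7.4, 1 mM CaCl2, 5 mM MgCl₂, 0.1% OA, 0.02% Tween20.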
Turning to B1, the IC50 is 0.791 nM. In the case of B2 it was 0.104 nM; in that of B3, 0.666 nM; in that of B4, 0.176 nM. As for B5, the IC50 amounted to 0.148 nM.

For orientation: IC50 means the point on the concentration scale where inhibition reaches its midpoint.

Source of the values: patent US20140087995A1 (published 2014).
